Assay results: patent US20110065645A1, “Compositions and Methods for Modulating Neuron Degeneration and Neuron Guidance” (The Regents of the University of California, priority 2009, published 2011)

Columns and labels:
JNK = test: Phospho-Jun immunoblot in dissociated commissural neurons; assay type: cell-based, rat; settings: within 15 minutes of bath application; 200 ng/ml
Text: JNK is activated by Wnt5a in commissural axons and required for their A-P guidance. Several Wnt genes are expressed in an anterior-posterior gradient in or around the floor plate of the spinal cord. However, the mechanisms of how Wnt signaling mediates axon attraction and growth have yet to be elucidated. We tested whether JNK signaling is activated in commissural neurons via Wnt5a stimulation by measuring the levels of phospho Jun (FIG. 20A) and also examined whether JNK is required for A-P guidance of commissural axons. Commissural neurons were cultured for 36 hrs and subject to bath application of Wnt5a. […] Furthermore, endogenous Fzd3 and Vgl2 proteins can be detected in rat E13 commissural neuron lysates after 36 hours in culture (anti-Fzd3 and anti-Vgl2 IB, FIG. 20A). The specificity of Fzd3 and Vgl2 antibodies for western blot analysis was validated using knock and mutant mouse line (FIG. 27D and FIG. 27E).
Commissural neuron culture, treatment and lysis. Rat E13 embryos were dissected and commissural neuron culture was prepared as previously described (Augsburger et al., 1999). […] The cells were then lysed on ice and the lysates were analyzed on immunoblots.

cortical neurons = test: Cortical neuron death/survival assay under PKCζ inhibition (Tuj1, TUNEL, DAPI staining); assay type: cell-based
Text: 1. PKCζ is required for survival of cortical neurons. E15.5 cortical neurons were dissociated and cultured for 2 days in the presence of various concentrations of a cell membrane penetrating myristoylated peptide derived in the pseudosubstrate domain of PKC (FIGS. 12A-12D). This peptide is a specific inhibitor of PKCζ.
2. Axon degeneration procedes cell body death when PKC is inhibited. We examined the timing of axon degeneration and cell body death. […] The death induced by PKCζ inhibition is much faster than Aβ peptide induced neuronal death (FIG. 12D), probably because the PKCζ is an essential kinase and peptide inhibition causes instant death, whereas Aβ has to bind to cell surface receptor and trigger a signaling cascade to cause death, which requires a longer time.
3. Wnts are trophic factors for cortical neurons. […] Nuclear shrinkage (pyknosis) is a hallmark of neuronal cell death. Using DAPI staining, we can visualize the cell nuclei (FIG. 14B). […] Initial cortical axons and dendrite form and grow but axons start to disintegrate at E18.5 (FIG. 14D, from Wang et al 2006),^(13) (FIGS. 12F, 12K). Based on our preliminary results, we propose that Wnts are not only axon guidance molecules but also regulate neuronal survival and axon degeneration acting via PKC (FIG. 15).
3. Survival and cell death assays for screening of monoclonal antibodies and small compounds. We use the same cell death/survival assay as described in FIGS. 12A-14D and use microtubule staining to analyze the integrity of microtubules, DAPI stain to measure the size of cell nuclei and TUNEL staining to assay cell death. Microtubule disassembly is quantified by staining intensity of Tuj1 and Tau antibodies. The size of cell nuclei is binned into difference sizes and the distribution of the nuclei size is used as quantification of pyknosis (FIG. 14C).

commissural axons = test: Axon length of electroporated dissociated commissural neurons on Wnt5a-coated coverslips; assay type: cell-based, rat
Text: Fzd3 mediates Wnt-stimulated commissural axon elongation. To directly test the function of PCP components in Wnt-mediated outgrowth of commissural axons, we electroporated DNA constructs to express PCP components in dissociated commissural neurons. The spinal cord of E11.5 mouse or E13 rat contains a ventricle into which plasmid DNA can be introduced (FIG. 28A). After injecting DNA into the central canal and electroporation, the spinal cord was dissected into an “open-book” configuration and then the dorsal spinal cord margin including the progenitor domains was dissociated as previously described ((Augsburger et al., 1999), FIG. 28A). More than 90% of the electroporated and dissociated neurons were TAG-1 immuno-reactive, confirming that they are commissural neurons (Wolf et al., 2008).
This may be due the presence of low endogenous levels of PCP components in these axons following 24 hours of culture (FIGS. 20A-20E).
Electroporated commissural culture. Electroporations of rat E13 spinal cords were completed as previously described (Wolf et al., 2008). Neurons were dissociated from these spinal preps and grown as previously described (Augsburger et al., 1999). […] The axons lengths were quantified with Zeiss LSM510 software, verified with ImageJ quantification, and the data were analyzed with an unpaired two-tailed t test for each electroporation condition.

B1: Wnt5a: recombinant Wnt5a protein (R&D Systems) (protein, UniProt P41221 62-380, looked up)
Protein Wnt-5a: IIGAQPLCSQLAGLSQGQKKLCHLYQDHMQYIGEGAKTGIKECQYQFRHRRWNCSTVDNTSVFGRVMQIGSRETAFTYAVSAAGVVNAMSRACREGELSTCGCSRAARPKDLPRDWLWGGCGDNIDYGYRFAKEFVDARERERIHAKGSYESARILMNLHNNEAGRRTVYNLADVACKCHGVSGSCSLKTCWLQLADFRKVGDALKEKYDSAAAMRLNSRGKLVQVNSRFNSPTTQDLVYIDPSPDYCVRNESTGSLGTQGRLCNKTSEGMDGCELMCCGRGYDQFKTVQTERCHCKFHWCCYVKCKKCTEIVDQFVCK
- increase of endogenous phospho-Jun levels (JNK): 4 fold
- axon degeneration / reduction of microtubule staining (Tuj1) (cortical neurons; 5 um pseudosubstrate peptide): much less degeneration was seen
- axons remaining judged by Tuj1 staining (cortical neurons; 10 um pseudosubstrate peptide): more axons still remain
- cell death induced by PKC inhibition (cortical neurons; pretreatment before pseudosubstrate peptide): block/reduce the cell death
- increase in axon growth (commissural axons; control neurons expressing EGFP): ~15%
- enhancement of axon length (commissural axons; neurons over-expressing Fzd3-EGFP, within 24 hours): ~36%
